According to paper PMC10515946 (bioRxiv, 2023):

Target: soluble monomeric 1059 gp120 (HIV-1 clone 1059_09.A4.1460 (clade B …, strain))
Test: ELISA

binding result: binds
B1: N6 (CD4-binding site broadly neutralizing antibody) (antibody, V domains shown)
VH: RAHLVQSGTAMKKPGASVRVSCQTSGYTFTAHILFWFRQAPGRGLEWVGWIKPQYGAVNFGGGFRDRVTLTRDVYREIAYMDIRGLKPDDTAVYYCARDRSYGDSSWALDAWGQGTTVVVSA
VL: YIHVTQSPSSLSVSIGDRVTINCQTSQGVGSDLHWYQHKPGRAPKLLIHHTSSVEDGVPSRFSGSGFHTSFNLTISDLQADDIATYYCQVLQFFGRGSRLHIK
